{"source": "patent US20120238493A1", "about": "(INDIANA UNIVERSITY RESEARCH AND TECHNOLOGY, published 2012)", "binders": {"B1": {"name": "Glucagon Aib2, K9(rErEC16), Aib16, amide (SEQ ID NO: 43) (peptide)", "peptide": "H[Aib]QGTFTSKYSKYLD[Aib]RRAQDFVQWLMNT-NH2", "modifications": "not fully specified (residue 9)"}, "B2": {"name": "Glucagon Aib2, Aib16, amide (SEQ ID NO: 42) (peptide)", "peptide": "H[Aib]QGTFTSDYSKYLD[Aib]RRAQDFVQWLMNT-NH2", "modifications": "N-terminus assumed", "SMILES": "CSCC[C@H](NC(=O)[C@H](CC(C)C)NC(=O)[C@H](Cc1c[nH]c2ccccc12)NC(=O)[C@H](CCC(N)=O)NC(=O)[C@@H](NC(=O)[C@H](Cc1ccccc1)NC(=O)[C@H](CC(=O)O)NC(=O)[C@H](CCC(N)=O)NC(=O)[C@H](C)NC(=O)[C@H](CCCNC(=N)N)NC(=O)[C@H](CCCNC(=N)N)NC(=O)C(C)(C)NC(=O)[C@H](CC(=O)O)NC(=O)[C@H](CC(C)C)NC(=O)[C@H](Cc1ccc(O)cc1)NC(=O)[C@H](CCCCN)NC(=O)[C@H](CO)NC(=O)[C@H](Cc1ccc(O)cc1)NC(=O)[C@H](CC(=O)O)NC(=O)[C@H](CO)NC(=O)[C@@H](NC(=O)[C@H](Cc1ccccc1)NC(=O)[C@@H](NC(=O)CNC(=O)[C@H](CCC(N)=O)NC(=O)C(C)(C)NC(=O)[C@@H](N)Cc1c[nH]cn1)[C@@H](C)O)[C@@H](C)O)C(C)C)C(=O)N[C@@H](CC(N)=O)C(=O)N[C@H](C(N)=O)[C@@H](C)O"}, "B3": {"name": "Glucagon Aib2, K12(rErEC16), Aib16, amide (SEQ ID NO: 45) (peptide)", "peptide": "H[Aib]QGTFTSDYSKYLD[Aib]RRAQDFVQWLMNT-NH2", "modifications": "not fully specified (residue 12)"}, "B4": {"name": "peptide of SEQ ID NO: 171 (peptide)", "peptide": "H[Aib]EGTFTSDYSKYLDERAAQDFVQWLLDGGPSSGAPPPSK([γGlu-γGlu-Palmitoyl])G-NH2"}, "B5": {"name": "Analog No. 63: Aib2, E3, K10acyl, E16, L27, D28, G29 + CEX (SEQ ID NO: 39) (peptide)", "peptide": "H[Aib]EGTFTSDK([γGlu-Palmitoyl])SKYLDERAAQDFVQWLLDGGPSSGAPPPS-NH2", "modifications": "N-terminus assumed", "SMILES": "CCCCCCCCCCCCCCCC(=O)N[C@@H](CCC(=O)NCCCC[C@H](NC(=O)[C@H](CC(=O)O)NC(=O)[C@H](CO)NC(=O)[C@@H](NC(=O)[C@H](Cc1ccccc1)NC(=O)[C@@H](NC(=O)CNC(=O)[C@H](CCC(=O)O)NC(=O)C(C)(C)NC(=O)[C@@H](N)Cc1c[nH]cn1)[C@@H](C)O)[C@@H](C)O)C(=O)N[C@@H](CO)C(=O)N[C@@H](CCCCN)C(=O)N[C@@H](Cc1ccc(O)cc1)C(=O)N[C@@H](CC(C)C)C(=O)N[C@@H](CC(=O)O)C(=O)N[C@@H](CCC(=O)O)C(=O)N[C@@H](CCCNC(=N)N)C(=O)N[C@@H](C)C(=O)N[C@@H](C)C(=O)N[C@@H](CCC(N)=O)C(=O)N[C@@H](CC(=O)O)C(=O)N[C@@H](Cc1ccccc1)C(=O)N[C@H](C(=O)N[C@@H](CCC(N)=O)C(=O)N[C@@H](Cc1c[nH]c2ccccc12)C(=O)N[C@@H](CC(C)C)C(=O)N[C@@H](CC(C)C)C(=O)N[C@@H](CC(=O)O)C(=O)NCC(=O)NCC(=O)N1CCC[C@H]1C(=O)N[C@@H](CO)C(=O)N[C@@H](CO)C(=O)NCC(=O)N[C@@H](C)C(=O)N1CCC[C@H]1C(=O)N1CCC[C@H]1C(=O)N1CCC[C@H]1C(=O)N[C@@H](CO)C(N)=O)C(C)C)C(=O)O"}}, "assay_in_all_cases": "cell-based or functional assay", "key": {"glucagon receptor [1]": {"biological_target": "T1, glucagon receptor (UniProt P47871 26-477, limits assumed)", "T1 sequence (P47871 26-477 limits assumed)": "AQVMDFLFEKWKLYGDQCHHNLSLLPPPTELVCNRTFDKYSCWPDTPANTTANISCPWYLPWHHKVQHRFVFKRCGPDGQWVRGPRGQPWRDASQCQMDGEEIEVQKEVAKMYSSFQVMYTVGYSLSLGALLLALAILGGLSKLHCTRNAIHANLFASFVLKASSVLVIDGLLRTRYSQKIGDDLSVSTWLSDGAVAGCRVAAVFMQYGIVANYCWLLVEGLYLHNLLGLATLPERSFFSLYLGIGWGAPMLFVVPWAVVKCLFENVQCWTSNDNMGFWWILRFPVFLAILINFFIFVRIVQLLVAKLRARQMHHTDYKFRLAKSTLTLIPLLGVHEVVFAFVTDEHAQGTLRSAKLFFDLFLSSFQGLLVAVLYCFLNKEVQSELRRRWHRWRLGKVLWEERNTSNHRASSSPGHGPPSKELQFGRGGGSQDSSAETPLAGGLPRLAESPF"}, "GLP-1 receptor [2]": {"biological_target": "T2, GLP-1 receptor (UniProt P43220 24-463, limits assumed)"}, "GIP receptor [3]": {"biological_target": "T3, GIP receptor (UniProt P48546 22-466, limits assumed)", "T3 sequence (looked up)": "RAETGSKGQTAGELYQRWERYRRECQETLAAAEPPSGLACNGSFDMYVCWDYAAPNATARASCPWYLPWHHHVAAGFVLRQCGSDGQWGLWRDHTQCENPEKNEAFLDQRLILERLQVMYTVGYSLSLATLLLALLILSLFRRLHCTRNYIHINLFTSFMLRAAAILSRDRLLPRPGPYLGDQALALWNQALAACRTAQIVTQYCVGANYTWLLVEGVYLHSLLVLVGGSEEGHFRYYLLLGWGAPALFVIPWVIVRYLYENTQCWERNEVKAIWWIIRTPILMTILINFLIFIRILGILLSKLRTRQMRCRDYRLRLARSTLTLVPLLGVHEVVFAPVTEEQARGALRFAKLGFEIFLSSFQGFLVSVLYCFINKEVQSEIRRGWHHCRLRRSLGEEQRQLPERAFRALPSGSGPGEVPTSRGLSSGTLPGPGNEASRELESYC"}, "glucagon receptor [4]": {"biological_target": "T1, glucagon receptor", "remark": "listed apart in the source"}, "GLP-1 receptor [5]": {"biological_target": "T2, GLP-1 receptor", "remark": "listed apart in the source"}, "GIP receptor [6]": {"biological_target": "T3, GIP receptor", "remark": "listed apart in the source"}, "glucagon receptor [7]": {"biological_target": "T1, glucagon receptor", "remark": "listed apart in the source"}, "GLP-1 receptor [8]": {"biological_target": "T2, GLP-1 receptor", "remark": "listed apart in the source"}, "GIP receptor [9]": {"biological_target": "T3, GIP receptor", "remark": "listed apart in the source"}, "glucagon receptor [10]": {"biological_target": "T1, glucagon receptor", "remark": "listed apart in the source"}, "GLP-1 receptor [11]": {"biological_target": "T2, GLP-1 receptor", "remark": "listed apart in the source"}, "GIP receptor [12]": {"biological_target": "T3, GIP receptor", "remark": "listed apart in the source"}}, "note": "Where two headings read alike, the source gives them in different places. *1 amine or outer side, *2 acyl side, *3 side chain or, on linkers, in order; H or OH if unused. Where no end group is shown, it is not given here. Side-chain parts run from the residue outwards. [ ]: non-standard residue; d: D form. The star is where a group is joined. γGlu = O=C(O)[C@H](CCC(=O)[*:2])N[*:1]; Palmitoyl = CCCCCCCCCCCCCCCC(=O)*; Aib = CC(C)(N)C(=O)O"}
{"binder": "B1", "values": [{"measurement": "EC50 (cAMP reporter)", "setting": "glucagon receptor [1]", "value": 1.15, "unit": "nM"}, {"measurement": "EC50 (cAMP reporter)", "setting": "GLP-1 receptor [2]", "value": 0.232, "unit": "nM"}, {"measurement": "EC50 (cAMP reporter)", "setting": "GIP receptor [3]", "value": 15.1, "unit": "nM"}]}
{"binder": "B2", "values": [{"measurement": "EC50 (cAMP reporter)", "setting": "glucagon receptor [1]", "value": 0.309, "unit": "nM"}, {"measurement": "EC50 (cAMP reporter)", "setting": "GLP-1 receptor [2]", "value": 0.437, "unit": "nM"}, {"measurement": "EC50 (cAMP reporter)", "setting": "GIP receptor [3]", "value": 104, "unit": "nM"}]}
{"binder": "B3", "values": [{"measurement": "EC50 (cAMP reporter)", "setting": "glucagon receptor [1]", "value": 0.0425, "unit": "nM"}, {"measurement": "EC50 (cAMP reporter)", "setting": "GLP-1 receptor [2]", "value": 0.0205, "unit": "nM"}, {"measurement": "EC50 (cAMP reporter)", "setting": "GIP receptor [3]", "value": 0.651, "unit": "nM"}]}
{"binder": "B4", "values": [{"measurement": "EC50 (cAMP reporter)", "setting": "glucagon receptor [4]", "value": 0.455, "unit": "nM"}, {"measurement": "EC50 (cAMP reporter)", "setting": "GLP-1 receptor [5]", "value": 0.005, "unit": "nM"}, {"measurement": "EC50 (cAMP reporter)", "setting": "GIP receptor [6]", "value": 0.038, "unit": "nM"}]}
{"binder": "B5", "values": [{"measurement": "EC50 (cAMP reporter)", "setting": "glucagon receptor [7]", "value": 1.28, "unit": "nM"}, {"measurement": "EC50 (cAMP reporter)", "setting": "GLP-1 receptor [8]", "value": 0.008, "unit": "nM"}, {"measurement": "EC50 (cAMP reporter)", "setting": "GIP receptor [9]", "value": 0.026, "unit": "nM"}, {"measurement": "activity (cAMP reporter), column Glu", "setting": "glucagon receptor [10]", "value": 1.28}, {"measurement": "activity (cAMP reporter), column GLP", "setting": "GLP-1 receptor [11]", "value": 0.008}, {"measurement": "activity (cAMP reporter), column GIP", "setting": "GIP receptor [12]", "value": 0.026}]}
